# Results from US20070110748A1.
# Columns and labels:
# [1] = target: FnBP purified from S. aureus strain Newman (Staphylococcus aureus); test: competition ELISA on FnBP-coated wells; competitor anti-D121-34 F(ab')2 at 100 µg/ml
# [2] = target: FnBP purified from S. aureus strain Newman (Staphylococcus aureus); test: competition ELISA on FnBP-coated wells; competitor anti-D320-33 F(ab')2 at 100 µg/ml
# Human plasma Fn, P02751 32-2296 (ligand), sequence (P02751 other isoform, or with tags, fused parts or gaps limits assumed): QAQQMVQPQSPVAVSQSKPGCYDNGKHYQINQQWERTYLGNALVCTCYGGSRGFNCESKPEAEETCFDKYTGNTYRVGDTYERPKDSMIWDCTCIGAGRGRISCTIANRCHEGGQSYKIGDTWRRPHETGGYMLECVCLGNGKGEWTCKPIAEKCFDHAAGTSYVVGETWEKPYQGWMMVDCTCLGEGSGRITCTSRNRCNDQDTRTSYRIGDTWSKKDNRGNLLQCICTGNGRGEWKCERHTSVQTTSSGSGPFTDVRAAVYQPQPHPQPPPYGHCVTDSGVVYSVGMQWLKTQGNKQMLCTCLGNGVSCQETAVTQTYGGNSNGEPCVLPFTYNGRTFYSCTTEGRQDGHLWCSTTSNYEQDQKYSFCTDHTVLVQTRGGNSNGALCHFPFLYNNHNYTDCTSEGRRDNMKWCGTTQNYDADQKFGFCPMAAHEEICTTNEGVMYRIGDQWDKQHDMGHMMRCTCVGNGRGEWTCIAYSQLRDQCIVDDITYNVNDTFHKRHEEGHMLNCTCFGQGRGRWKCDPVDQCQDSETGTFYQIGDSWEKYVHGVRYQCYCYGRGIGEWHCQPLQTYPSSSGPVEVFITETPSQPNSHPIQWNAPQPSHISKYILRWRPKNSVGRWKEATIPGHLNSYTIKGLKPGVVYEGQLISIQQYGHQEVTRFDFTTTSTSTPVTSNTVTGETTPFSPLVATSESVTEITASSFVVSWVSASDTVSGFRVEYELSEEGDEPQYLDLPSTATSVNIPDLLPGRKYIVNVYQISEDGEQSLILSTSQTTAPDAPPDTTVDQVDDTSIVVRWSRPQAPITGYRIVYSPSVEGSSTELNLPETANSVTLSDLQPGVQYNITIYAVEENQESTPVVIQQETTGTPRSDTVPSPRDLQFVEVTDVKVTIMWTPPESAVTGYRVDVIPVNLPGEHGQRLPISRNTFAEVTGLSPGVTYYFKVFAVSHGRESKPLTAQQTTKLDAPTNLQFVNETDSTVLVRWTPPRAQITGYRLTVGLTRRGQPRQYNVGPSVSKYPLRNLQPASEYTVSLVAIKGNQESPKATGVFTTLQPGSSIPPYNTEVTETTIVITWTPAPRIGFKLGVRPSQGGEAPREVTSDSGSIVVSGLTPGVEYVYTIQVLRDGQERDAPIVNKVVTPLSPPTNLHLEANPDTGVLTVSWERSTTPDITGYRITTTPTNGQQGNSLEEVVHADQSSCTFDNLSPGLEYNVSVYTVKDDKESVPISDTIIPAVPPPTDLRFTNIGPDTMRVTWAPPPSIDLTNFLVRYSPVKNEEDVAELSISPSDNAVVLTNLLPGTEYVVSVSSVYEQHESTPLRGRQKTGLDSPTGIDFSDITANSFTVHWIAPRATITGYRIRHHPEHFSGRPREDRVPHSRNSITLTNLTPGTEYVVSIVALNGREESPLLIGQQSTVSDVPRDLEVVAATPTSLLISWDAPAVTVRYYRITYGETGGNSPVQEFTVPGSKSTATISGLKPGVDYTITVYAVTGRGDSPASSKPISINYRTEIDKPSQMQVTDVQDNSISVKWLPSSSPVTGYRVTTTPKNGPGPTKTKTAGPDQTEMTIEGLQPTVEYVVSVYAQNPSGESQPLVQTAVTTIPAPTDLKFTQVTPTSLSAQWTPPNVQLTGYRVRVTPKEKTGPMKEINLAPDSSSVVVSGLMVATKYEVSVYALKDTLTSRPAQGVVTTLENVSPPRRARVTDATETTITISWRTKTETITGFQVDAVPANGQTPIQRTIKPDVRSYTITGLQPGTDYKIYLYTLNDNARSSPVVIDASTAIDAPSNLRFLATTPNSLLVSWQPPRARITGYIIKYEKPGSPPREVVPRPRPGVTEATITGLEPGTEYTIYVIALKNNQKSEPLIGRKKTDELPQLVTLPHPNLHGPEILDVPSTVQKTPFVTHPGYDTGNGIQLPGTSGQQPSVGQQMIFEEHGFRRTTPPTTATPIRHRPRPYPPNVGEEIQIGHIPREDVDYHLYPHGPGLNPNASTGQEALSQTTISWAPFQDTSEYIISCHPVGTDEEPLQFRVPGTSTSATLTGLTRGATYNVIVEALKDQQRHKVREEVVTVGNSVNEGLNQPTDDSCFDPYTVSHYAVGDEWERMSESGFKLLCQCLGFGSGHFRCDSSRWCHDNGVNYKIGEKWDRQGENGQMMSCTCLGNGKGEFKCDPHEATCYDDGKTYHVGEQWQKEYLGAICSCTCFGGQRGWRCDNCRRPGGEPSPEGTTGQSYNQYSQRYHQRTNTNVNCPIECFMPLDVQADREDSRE
substance,measurement,setting,value
"Human plasma Fn, P02751 32-2296 (ligand)",concentration of soluble Fn at which F(ab')2 recognition of FnBP was virtually eliminated,[1],50 µg/mL
same,concentration of soluble Fn at which F(ab')2 recognition of FnBP was virtually eliminated,[2],50 µg/mL
